Assay results as given in publication PMC314469, “Protein Interaction Networks by Proteome Peptide Scanning” (PLoS Biology, 2004).
Blank lines part the entries; values can stand above or below the binder they belong to.

Target: T1, Abp1 SH3 (ABP1_YEAST), P15891
T1 chain: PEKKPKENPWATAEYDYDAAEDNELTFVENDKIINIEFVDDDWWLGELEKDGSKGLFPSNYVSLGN
Experiment: SPOT array

normalised SPOT signal, Boehringer light units (BLU); mean over the file's lines of this peptide: 56.7
B2: YPR104C 727-740 (peptide)
chain: RQPIVQTPHVPDRP

normalised SPOT signal, Boehringer light units (BLU); mean over the file's lines of this peptide: 555
B3: YLL057C 379-391 (peptide)
chain: RHAFRITPQAERP

normalised SPOT signal, Boehringer light units (BLU); mean over the file's lines of this peptide: 44.7
B4: YNL233W 771-784 (peptide)
chain: RNNAYLPEFEPNRP

normalised SPOT signal, Boehringer light units (BLU); mean over the file's lines of this peptide: 1050
B5: YOR236W 58-70 (peptide)
chain: RKTWESIPPKFRP

normalised SPOT signal, Boehringer light units (BLU); mean over the file's lines of this peptide: 196
B6: YMR201C 33-45 (peptide)
chain: RIESRNEPLKTRP

normalised SPOT signal, Boehringer light units (BLU); mean over the file's lines of this peptide: 1000
B7: YMR089C 152-165 (peptide)
chain: RNIPPPPPPPPPKP

normalised SPOT signal, Boehringer light units (BLU); mean over the file's lines of this peptide: 62.6
B8: YMR273C 809-822 (peptide)
chain: RKLTFADVKKPDKP

normalised SPOT signal, Boehringer light units (BLU); mean over the file's lines of this peptide: 112
B10: YOL090W 17-30 (peptide)
chain: RNFYKKYTGLPKKP

normalised SPOT signal, Boehringer light units (BLU); mean over the file's lines of this peptide: 77.8
B11: YOR156C 78-91 (peptide)
chain: RKSSDIGHIDPWRP

normalised SPOT signal, Boehringer light units (BLU); mean over the file's lines of this peptide: 2960
B12: YLR006C 664-677 (peptide)
chain: RMTDSVLVKSPQKP

normalised SPOT signal, Boehringer light units (BLU); mean over the file's lines of this peptide: 33.3
B13: YKL089W 336-349 (peptide)
chain: RRKKQKKKPTPTRP

normalised SPOT signal, Boehringer light units (BLU); mean over the file's lines of this peptide: 89.4
B14: YLR353W 192-205 (peptide)
chain: RGNDESKNGTPPRP

normalised SPOT signal, Boehringer light units (BLU); mean over the file's lines of this peptide: 373
B17: YPR122W 608-620 (peptide)
chain: RPQIYSEPTRTKP

normalised SPOT signal, Boehringer light units (BLU); mean over the file's lines of this peptide: 126
B19: YJL194W 14-27 (peptide)
chain: RNLFDDAPATPPRP

normalised SPOT signal, Boehringer light units (BLU); mean over the file's lines of this peptide: 94.5
B22: YPR045C 202-214 (peptide)
chain: RLTSEPNPDLIRP

normalised SPOT signal, Boehringer light units (BLU); mean over the file's lines of this peptide: 300
B24: YHR185C 60-72 (peptide)
chain: RRQHEQWPAYEKP

normalised SPOT signal, Boehringer light units (BLU); mean over the file's lines of this peptide: 168
B26: YLL029W 24-37 (peptide)
chain: RGTSASHSPRPFRP

normalised SPOT signal, Boehringer light units (BLU); mean over the file's lines of this peptide: 702
B29: YOR260W 63-75 (peptide)
chain: RLPKALLPIGNRP

normalised SPOT signal, Boehringer light units (BLU); mean over the file's lines of this peptide: 121
B30: YPL181W 404-417 (peptide)
chain: RRSADIGTDKPVKP

normalised SPOT signal, Boehringer light units (BLU); mean over the file's lines of this peptide: 303
B33: YOR023C 518-530 (peptide)
chain: RERLRANPTDKKP

normalised SPOT signal, Boehringer light units (BLU); mean over the file's lines of this peptide: 106
B35: YKL089W 337-349 (peptide)
chain: RKKQKKKPTPTRP

normalised SPOT signal, Boehringer light units (BLU); mean over the file's lines of this peptide: 412
B36: YKL185W 146-159 (peptide)
chain: RLSSVSLSKRPERP

normalised SPOT signal, Boehringer light units (BLU); mean over the file's lines of this peptide: 72.5
B37: YNL086W 58-71 (peptide)
chain: REGQVLYDPEPFKP

normalised SPOT signal, Boehringer light units (BLU); mean over the file's lines of this peptide: 76.3
B38: YNL278W 803-816 (peptide)
chain: RSRHEVPKRSPEKP

normalised SPOT signal, Boehringer light units (BLU); mean over the file's lines of this peptide: 615
B39: YPR140W 364-376 (peptide)
chain: RRMQKFLPPEGKP

normalised SPOT signal, Boehringer light units (BLU); mean over the file's lines of this peptide: 2820
B40: YNL094W 468-480 (peptide)
chain: RPPPPPIPSTQKP

normalised SPOT signal, Boehringer light units (BLU); mean over the file's lines of this peptide: 104
B42: YHR159W 69-81 (peptide)
chain: RLNDQDHPLQAKP

normalised SPOT signal, Boehringer light units (BLU); mean over the file's lines of this peptide: 224
B46: YMR172W 515-527 (peptide)
chain: RNRASTLPSYPKP

normalised SPOT signal, Boehringer light units (BLU); mean over the file's lines of this peptide: 955
B50: YKL219W 373-385 (peptide)
chain: RLLSTKKPMFDRP

normalised SPOT signal, Boehringer light units (BLU); mean over the file's lines of this peptide: 110
B52: YPL073C 76-89 (peptide)
chain: RFKYSTNRGIPARP

normalised SPOT signal, Boehringer light units (BLU); mean over the file's lines of this peptide: 159
B54: YOR196C 186-199 (peptide)
chain: RFSSVKTNRTPSKP

normalised SPOT signal, Boehringer light units (BLU); mean over the file's lines of this peptide: 13.6
B56: YIL085C 485-497 (peptide)
chain: REYEKEFPGSYKP

normalised SPOT signal, Boehringer light units (BLU); mean over the file's lines of this peptide: 344
B57: YOR144C 235-247 (peptide)
chain: RNTTLTWPQLFKP

Second part, the binder before the results:

B1: YGL058W 54-67 (peptide)
chain: RLLLEFDEEYPNKP
normalised SPOT signal, Boehringer light units (BLU); mean over the file's lines of this peptide: 97.1

B9: YER081W 41-53 (peptide)
chain: RLNAVKHPKILKP
normalised SPOT signal, Boehringer light units (BLU); mean over the file's lines of this peptide: 188

B15: YDR104C 1028-1040 (peptide)
chain: RPLIQKGPLYQKP
normalised SPOT signal, Boehringer light units (BLU); mean over the file's lines of this peptide: 359

B16: YCR066W 152-164 (peptide)
chain: RSMTDILPLSSKP
normalised SPOT signal, Boehringer light units (BLU); mean over the file's lines of this peptide: 5410

B18: YGR074W 130-142 (peptide)
chain: RRRDFGAPANKRP
normalised SPOT signal, Boehringer light units (BLU); mean over the file's lines of this peptide: 71.9

B20: YGL064C 428-441 (peptide)
chain: RSEKIMPFLSPPRP
normalised SPOT signal, Boehringer light units (BLU); mean over the file's lines of this peptide: 701

B21: YDR186C 539-551 (peptide)
chain: RSLSLMDPALQKP
normalised SPOT signal, Boehringer light units (BLU); mean over the file's lines of this peptide: 431

B23: YCR033W 218-231 (peptide)
chain: RSNKWRSIGTPSRP
normalised SPOT signal, Boehringer light units (BLU); mean over the file's lines of this peptide: 148

B25: YER158C 359-372 (peptide)
chain: RIPVLPPPRSPNRP
normalised SPOT signal, Boehringer light units (BLU); mean over the file's lines of this peptide: 7670

B27: YHL024W 604-617 (peptide)
chain: RRSSYGYNEVPPKP
normalised SPOT signal, Boehringer light units (BLU); mean over the file's lines of this peptide: 188

B28: YFR032C 54-67 (peptide)
chain: RRFSKRHNSNPRKP
normalised SPOT signal, Boehringer light units (BLU); mean over the file's lines of this peptide: 89

B31: YGR097W 8-20 (peptide)
chain: RPSQTLTPMGNKP
normalised SPOT signal, Boehringer light units (BLU); mean over the file's lines of this peptide: 4080

B32: YGL041C 90-103 (peptide)
chain: RLSVKSSRRNPGKP
normalised SPOT signal, Boehringer light units (BLU); mean over the file's lines of this peptide: 125

B34: YDR024W 78-90 (peptide)
chain: RPTQVSRPLGGRP
normalised SPOT signal, Boehringer light units (BLU); mean over the file's lines of this peptide: 3290

B41: YDR284C 245-258 (peptide)
chain: RIFPPIDDPLPFKP
normalised SPOT signal, Boehringer light units (BLU); mean over the file's lines of this peptide: 92.4

B43: YDR242W 430-442 (peptide)
chain: RDYYLSFPESERP
normalised SPOT signal, Boehringer light units (BLU); mean over the file's lines of this peptide: 41

B44: YDR174W 96-109 (peptide)
chain: RRKIERDPNAPKKP
normalised SPOT signal, Boehringer light units (BLU); mean over the file's lines of this peptide: 66.1

B45: YBL034C 808-820 (peptide)
chain: RQIMIKSPNDFKP
normalised SPOT signal, Boehringer light units (BLU); mean over the file's lines of this peptide: 2000

B47: YHL009W-B 360-372 (peptide)
chain: RELGLTRPISQKP
normalised SPOT signal, Boehringer light units (BLU); mean over the file's lines of this peptide: 2940

B48: YDR246W 151-164 (peptide)
chain: RQPTIATTDKPDRP
normalised SPOT signal, Boehringer light units (BLU); mean over the file's lines of this peptide: 83.4

B49: YHR089C 121-134 (peptide)
chain: RFLPKPKVVGPPKP
normalised SPOT signal, Boehringer light units (BLU); mean over the file's lines of this peptide: 1660

B51: YGR165W 94-106 (peptide)
chain: RGQSLEHPVTKKP
normalised SPOT signal, Boehringer light units (BLU); mean over the file's lines of this peptide: 116

B53: YGR092W 44-57 (peptide)
chain: RPAGINDSPSPVKP
normalised SPOT signal, Boehringer light units (BLU); mean over the file's lines of this peptide: 71

B55: YEL062W 541-554 (peptide)
chain: RNTAQSGNLKPERP
normalised SPOT signal, Boehringer light units (BLU); mean over the file's lines of this peptide: 115

B58: YDL164C 386-398 (peptide)
chain: RPGIPLKPMLAKP
normalised SPOT signal, Boehringer light units (BLU); mean over the file's lines of this peptide: 42200
